Test results published in article PMC11838012, “TRAM-LAG1-CLN8 family proteins are acyltransferases regulating phospholipid composition” (Science Advances, 2025).

Experiments:
Test in all cases: LC-MS/MS initial-rate acyltransferase assay
[1] = target: T1, TLCD1 (Homo sapiens, UniProt Q96CP7); type: biochemical; conditions: 100 uM oleoyl-CoA; pH 7.4, 30 C, 0.05% LMNG; shares the LPE site
T1 construct: full length, C-terminal FLAG and Strep tags kept; expressed in Flp-In T-REx 293 cells; purified in LMNG; monomer in micelles
T1 sequence (Q96CP7 36-247): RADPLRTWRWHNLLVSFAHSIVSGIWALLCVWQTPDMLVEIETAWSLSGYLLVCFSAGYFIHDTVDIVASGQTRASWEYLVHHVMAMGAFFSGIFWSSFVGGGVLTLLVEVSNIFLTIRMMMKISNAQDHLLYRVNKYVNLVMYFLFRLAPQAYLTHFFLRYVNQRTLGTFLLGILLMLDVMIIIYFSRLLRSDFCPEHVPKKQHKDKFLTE

[2] = substrate: CCCCCCCC/C=C\CCCCCCCC(=O)OC[C@@H](O)COP(=O)(O)OCCN; type: biochemical, Caenorhabditis elegans; conditions: 100 uM myristoyl-CoA, pH 7.4, 30 C, 0.05% LMNG
[3] = substrate: CCCCCCCC/C=C\CCCCCCCC(=O)OC[C@@H](O)COP(=O)(O)OCCN; type: biochemical, Saccharomyces cerevisiae; conditions: 100 uM palmitoleoyl-CoA, pH 7.4, 30 C, 0.05% LMNG
[4] = substrate: CCCCCCCC/C=C\CCCCCCCC(=O)OC[C@@H](O)COP(=O)(O)OCCN; type: biochemical, Homo sapiens; conditions: 100 uM oleoyl-CoA, pH 7.4, 30 C, 0.05% LMNG

How did the “LC-MS/MS initial-rate acyltransferase assay” value [1] turn out when `Cc1ncc(C[n+]2csc(CCO)c2C)c(N)n1` [thiamine] was run?
The value was “a linear increase in the initial reaction rate (Vo) even at millimolar thiamine levels”.

B1: FLD-1 (Caenorhabditis elegans) (protein)
chain: MRQLAELLTDLLGPVPTMFLWVIVSFAFFRALQFIVRWYLFGKWTWPNFNFFDIRNRIRRRRRGGQEAENTENPPENEAEAGEQVEQEPEPDSRDLSAIPPNKKWRISNECVSLFHSVISGLWAAYALLYYKQLVQDLVNYRCDVAINLVLMSAGYLFHDLVDLLVNEQSARIIELLFHHVVVLSAFAVTMFFNRFLGVVVFGLLMELNSIFLHSRSLLNLYGVDKKSPSFRIIALLNMVTLFAFRLCVSAYLVYFVVVSIPDLEWYVSIINGLVIASLASTNTVLTYRLLAADGLLGSRRTRRTPAATAETQVGDVESGPLRTQVEDEDHHTIGVQTIHGTTEDATQTV
notes: codon-optimised, C-terminal His tag cut off by Factor Xa; expressed in S. cerevisiae BJ2168; purified in LMNG
Which Km [2] does the source give for B1 here?
Its Km is 10.1 µM.

And the kcat [2]?
The kcat was 0.608 s⁻¹.

B2: YPR114w (Saccharomyces cerevisiae S288C) (protein)
chain: MDVLLSLPQPELFKTTVIPFLANRNIIKSEAILSNLHSIFYVAIFYHIWFLFGKWILFPHLVKWKLDYDQKHNVKKDEKTTSERQAQHYKKKYTSLINQSSVHLISLLQSIVVLYYSLKFLLDPKASAEPYQTSHSRVFTENRDTQVICIFAIGYFVWDIYISTMYSTFPFVVHGIISTVVFCIGLKPYIQYYAPVFLMFELSNPSLNFRWFGIKFLPQKSKFCSLLLLLNNLTLMVVFFAARIAWGWFQIGKLCYDFYQVRNEPGFLVFDTIVILAGNFVLDILNVIWFSTMVSVAAKVLKKGESVDKVTKNEQ
notes: full length, C-terminal His tag cut off by Factor Xa; expressed in S. cerevisiae BJ2168; purified in LMNG
How did the Km [3] turn out when B2 was run?
The Km was 16.7 µM.

And the kcat [3]?
Its kcat is 2.225 s⁻¹.

B3: TLCD1 (Homo sapiens) (protein)
chain: T1 sequence (Q96CP7 36-247)
notes: full length, C-terminal FLAG and Strep tags kept; expressed in Flp-In T-REx 293 cells; purified in LMNG; monomer in micelles
With B3 as the molecule, how does the Km [4] read?
The Km was 67.5 µM.

What about the kcat [4] of the same molecule?
The kcat was 0.348 s⁻¹.
